Among the data in PMC5121064 are 1/τ of the onset of the BRET signal after MOR activation values, retold here.

For the experiment, the target named is Sec14/PH module of NF1, NanoBRET construct. Briefly: FRET or BRET. In general terms: BRET reads energy transfer from a luciferase to a nearby fluorophore.
Sequence of Sec14/PH module of NF1, NanoBRET construct (P21359 2-2839): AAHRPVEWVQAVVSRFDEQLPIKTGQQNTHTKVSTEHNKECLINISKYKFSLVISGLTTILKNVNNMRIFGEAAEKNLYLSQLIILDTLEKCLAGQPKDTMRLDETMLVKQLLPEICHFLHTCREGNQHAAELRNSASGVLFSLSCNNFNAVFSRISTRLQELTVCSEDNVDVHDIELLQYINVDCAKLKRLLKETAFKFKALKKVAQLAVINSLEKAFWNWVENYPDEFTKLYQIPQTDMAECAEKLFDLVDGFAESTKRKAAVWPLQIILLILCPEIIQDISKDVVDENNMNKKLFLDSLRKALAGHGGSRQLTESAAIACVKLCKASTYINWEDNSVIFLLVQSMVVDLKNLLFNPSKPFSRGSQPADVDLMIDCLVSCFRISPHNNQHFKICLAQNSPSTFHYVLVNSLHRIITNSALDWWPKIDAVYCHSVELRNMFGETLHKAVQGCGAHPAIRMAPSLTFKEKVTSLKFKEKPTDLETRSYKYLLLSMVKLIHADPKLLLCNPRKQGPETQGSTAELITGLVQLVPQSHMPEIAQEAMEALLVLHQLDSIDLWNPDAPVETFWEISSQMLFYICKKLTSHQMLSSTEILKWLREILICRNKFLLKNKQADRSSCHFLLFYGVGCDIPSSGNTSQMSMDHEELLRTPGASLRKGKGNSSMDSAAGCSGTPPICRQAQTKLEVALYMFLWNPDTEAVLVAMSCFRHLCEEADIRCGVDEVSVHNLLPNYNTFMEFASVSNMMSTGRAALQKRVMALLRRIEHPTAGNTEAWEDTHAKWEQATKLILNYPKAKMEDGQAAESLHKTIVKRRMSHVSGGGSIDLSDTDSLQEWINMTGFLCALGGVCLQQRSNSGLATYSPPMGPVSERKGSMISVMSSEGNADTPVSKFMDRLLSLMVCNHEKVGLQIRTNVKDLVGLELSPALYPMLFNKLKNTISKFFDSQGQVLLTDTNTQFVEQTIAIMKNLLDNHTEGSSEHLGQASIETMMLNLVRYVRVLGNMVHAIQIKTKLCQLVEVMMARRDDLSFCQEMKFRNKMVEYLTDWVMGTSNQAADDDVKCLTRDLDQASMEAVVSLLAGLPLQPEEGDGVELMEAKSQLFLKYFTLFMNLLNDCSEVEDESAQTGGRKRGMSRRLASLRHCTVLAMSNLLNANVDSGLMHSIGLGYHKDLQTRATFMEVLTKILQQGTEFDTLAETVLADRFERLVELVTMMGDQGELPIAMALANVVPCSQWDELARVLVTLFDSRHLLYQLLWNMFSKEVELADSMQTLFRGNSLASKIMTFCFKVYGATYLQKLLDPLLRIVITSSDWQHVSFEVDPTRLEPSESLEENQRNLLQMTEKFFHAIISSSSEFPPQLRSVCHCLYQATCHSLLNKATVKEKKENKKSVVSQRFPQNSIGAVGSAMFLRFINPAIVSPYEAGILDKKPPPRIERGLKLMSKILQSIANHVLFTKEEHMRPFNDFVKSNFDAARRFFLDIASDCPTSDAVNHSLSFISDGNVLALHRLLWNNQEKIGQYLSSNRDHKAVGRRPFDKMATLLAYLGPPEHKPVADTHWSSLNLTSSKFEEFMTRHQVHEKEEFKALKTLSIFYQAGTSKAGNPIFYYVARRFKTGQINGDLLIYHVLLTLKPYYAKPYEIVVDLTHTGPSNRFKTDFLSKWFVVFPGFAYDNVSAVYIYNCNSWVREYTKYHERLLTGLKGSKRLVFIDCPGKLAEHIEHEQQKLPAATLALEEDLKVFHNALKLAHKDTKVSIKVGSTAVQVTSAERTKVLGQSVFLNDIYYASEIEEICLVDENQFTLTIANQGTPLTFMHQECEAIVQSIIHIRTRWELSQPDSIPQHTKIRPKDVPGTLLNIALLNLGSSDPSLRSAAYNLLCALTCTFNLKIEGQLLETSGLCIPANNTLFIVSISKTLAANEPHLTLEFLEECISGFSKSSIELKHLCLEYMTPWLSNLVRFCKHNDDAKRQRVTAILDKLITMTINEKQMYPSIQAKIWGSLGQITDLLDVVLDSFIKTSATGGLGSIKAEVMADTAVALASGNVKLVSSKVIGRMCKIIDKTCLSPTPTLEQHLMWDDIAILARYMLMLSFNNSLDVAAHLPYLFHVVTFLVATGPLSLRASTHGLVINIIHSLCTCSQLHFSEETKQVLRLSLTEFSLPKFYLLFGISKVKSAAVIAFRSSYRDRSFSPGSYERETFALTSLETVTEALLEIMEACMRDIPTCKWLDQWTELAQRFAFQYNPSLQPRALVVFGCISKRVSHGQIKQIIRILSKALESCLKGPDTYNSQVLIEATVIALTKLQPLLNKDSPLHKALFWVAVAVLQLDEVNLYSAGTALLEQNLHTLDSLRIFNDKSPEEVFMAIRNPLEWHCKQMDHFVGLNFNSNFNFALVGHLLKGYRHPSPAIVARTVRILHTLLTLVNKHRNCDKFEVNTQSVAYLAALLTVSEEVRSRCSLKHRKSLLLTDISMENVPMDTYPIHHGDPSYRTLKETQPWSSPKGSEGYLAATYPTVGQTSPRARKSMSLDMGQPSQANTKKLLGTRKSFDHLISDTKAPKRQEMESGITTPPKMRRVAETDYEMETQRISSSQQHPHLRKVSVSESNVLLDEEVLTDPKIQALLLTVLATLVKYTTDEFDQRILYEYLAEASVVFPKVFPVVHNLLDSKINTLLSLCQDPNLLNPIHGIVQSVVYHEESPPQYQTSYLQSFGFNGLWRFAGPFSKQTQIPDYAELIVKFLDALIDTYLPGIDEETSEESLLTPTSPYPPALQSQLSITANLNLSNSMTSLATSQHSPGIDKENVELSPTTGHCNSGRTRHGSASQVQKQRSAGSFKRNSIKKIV

The substance “Gβγ, NanoBRET construct (from UniProt P62873 1-340; P59768 1-71) (complex)” returned a 1/τ of the onset of the BRET signal after MOR activation of 0.67 s⁻¹.
